Test results published in US20240101710A1 (ALLOGENE THERAPEUTICS, published 2024).

Molecular target: T1, anti-BCMA antibody clone C29 Fab
T1 construct: also called anti-BCMA clone C29 Fab
Assay: Biacore (SPR), 25 C, HEPES buffer pH 7.4
Procedure: E10 purified from the hybridoma cell line supernatant was analyzed by Biacore assay against the antigen anti-BCMA clone C29 Fab. The Biacore assay was run, for example, in 10 mM HEPES buffer, with 150 mM NaCl and 0.05% Tween20 at pH 7.4 and 1 mg/mL BSA at 25° C.

T1 sequence (VH, as listed by the source, chain 1 of 2): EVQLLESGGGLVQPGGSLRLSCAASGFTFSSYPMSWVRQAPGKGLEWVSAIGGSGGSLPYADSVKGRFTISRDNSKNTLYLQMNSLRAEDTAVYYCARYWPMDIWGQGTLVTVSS
T1 sequence (VL, as listed by the source, chain 2 of 2): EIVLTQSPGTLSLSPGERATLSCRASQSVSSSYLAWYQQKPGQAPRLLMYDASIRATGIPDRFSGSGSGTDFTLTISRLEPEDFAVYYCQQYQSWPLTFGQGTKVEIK

B1: anti-idiotypic antibody clone 87B12.E10 (E10), purified from hybridoma cell line (antibody, V domains shown)
VH: QVQLQQSGPGLVQPSQSLSIPCTVSGFSLTSYDVHWVRQSPGKGLEWLGVIWSGGSTGYNAIFRSRLSINKDNSKSQVFFKMTSLQPDDTAIYYCANFSPWYLPSYWDQGTLVTVSA
VL: QIVLTQSPAIMSASPGEKVTITCSASSNVSYMHWFQQKPGTSPKLWIYSTSNLASGVPARFSGSGSGTSYSLTISRMEAEDAATYYCQQRSSYPLTFGAGTKLELK
notes: Mouse (Balb/c) hybridoma antibody; also called E10 purified Ab from hybridoma cell line
What does the source list for B1?
Kd: 0.11 nM; koff: 0.000157 s⁻¹; kon: 1.48e+06 M⁻¹ s⁻¹; t1/2: 1.23 h
